The results in this text go back to US20140234213A1 (FOX CHASE CANCER CENTER, published 2014).

The assay has as its target T1, human Mullerian inhibiting substance Type II receptor (MISIIR) (human, UniProt Q16671 18-573).
T1 construct: whole, on cells; also called MIS type II receptor; AMHR2
T1 sequence (looked up): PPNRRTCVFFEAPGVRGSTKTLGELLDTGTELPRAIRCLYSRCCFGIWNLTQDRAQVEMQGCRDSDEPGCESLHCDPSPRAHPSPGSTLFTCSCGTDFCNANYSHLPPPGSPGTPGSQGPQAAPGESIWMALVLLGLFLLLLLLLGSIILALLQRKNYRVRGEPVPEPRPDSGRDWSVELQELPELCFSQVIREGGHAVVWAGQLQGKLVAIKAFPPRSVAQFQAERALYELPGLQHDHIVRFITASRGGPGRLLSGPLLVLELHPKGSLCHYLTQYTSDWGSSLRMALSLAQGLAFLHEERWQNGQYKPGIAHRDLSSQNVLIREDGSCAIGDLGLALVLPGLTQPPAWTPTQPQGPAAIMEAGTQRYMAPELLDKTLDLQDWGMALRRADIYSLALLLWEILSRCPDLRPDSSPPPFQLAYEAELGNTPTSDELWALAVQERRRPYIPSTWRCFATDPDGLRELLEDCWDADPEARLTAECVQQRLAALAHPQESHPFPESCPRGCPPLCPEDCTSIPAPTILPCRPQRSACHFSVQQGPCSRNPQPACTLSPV
Nature of the assay: inferred by the filing from the reporter gene assay (block of MIS-induced signaling); no direct binding assay. How it is done: FIG. 3 provides a schematic of a reporter gene assay to measure MISIIR signaling. The Tlx-2 (T-cell leukemia, homeobox 2) gene is a downstream target of BMP and MIS signaling (Tang et al. (1998) Development 125:1877-1887). Genes encoding mouse TLX2-luciferase and human MISIIR were stably transfected into P19 mouse neuroblastoma cells that normally lack MISIIR.
The ability of the new hybrid scFv molecules to block MIS binding to MISIIR was determined using a reporter gene assay in which signaling through MISIIR on the surface of […] cells triggers luminescence in the cells (FIG. 3). MIS was added to the cells in the presence or absence of the different scFv molecules and the resulting luminescence was measured (FIG. 4).
In general terms: Reporter assays use an easily measured gene product as a stand-in for the process of interest.

B1: RAD-1-0003 (E3 1DQH3) scFv (scFv)
scFv: MAQVQLQQSGPGLVKPSQTLSLTCAISGDSVSSKSATWNWIRQSPSRGLEWLGRTYYRSKWYNDYAESVKSRITIKPDTTKNHFSLQLKSVTPEDTAVYYCASPPGGKLLISLSEERISAHHVPMDYWGQGTLVTVSSSASGAELGGGGSGGGGSGGGGSTSQAVLTQPSSASGTPGQRVTISCSGSSSNIGAGYDVHWYQQLPGTAPKLLIYGNSNRPSGVPDRFSGSKSGTSASLAITGLQAEDEADYYCQSYDSSLSAHNYVFGTGTKVTLLG
notes: Hybrid scFv on the E3 framework with the MIS loop in the heavy chain CDR3, in a different orientation than RAD-1-0001
As for B1, the binding result is on record as “binds”.
